These results are taken from patent publication US20250295731A1.

Assay [1] deals with α9β1 integrin (UniProt Q13797). Put plainly: inhibition of α9LN18 cell adhesion to immobilized F9 fraction.
The target in assay [2] is α9β1 integrin (UniProt Q13797). Briefly: inhibition of α9LN18 cell adhesion to immobilized recombinant VCAM-1.
Assay [3] concerns the target α9β1 integrin (UniProt Q13797). Briefly: inhibition of α9+ cell adhesion to immobilized VCAM-1.
Assay [4] has as its target α9β1 integrin (UniProt Q13797). Put plainly: inhibition of α9+ cell adhesion to immobilized Fraction 9-4.

Sequence of UniProt Q13797 (Q13797 30-1035, chain 1 of 2): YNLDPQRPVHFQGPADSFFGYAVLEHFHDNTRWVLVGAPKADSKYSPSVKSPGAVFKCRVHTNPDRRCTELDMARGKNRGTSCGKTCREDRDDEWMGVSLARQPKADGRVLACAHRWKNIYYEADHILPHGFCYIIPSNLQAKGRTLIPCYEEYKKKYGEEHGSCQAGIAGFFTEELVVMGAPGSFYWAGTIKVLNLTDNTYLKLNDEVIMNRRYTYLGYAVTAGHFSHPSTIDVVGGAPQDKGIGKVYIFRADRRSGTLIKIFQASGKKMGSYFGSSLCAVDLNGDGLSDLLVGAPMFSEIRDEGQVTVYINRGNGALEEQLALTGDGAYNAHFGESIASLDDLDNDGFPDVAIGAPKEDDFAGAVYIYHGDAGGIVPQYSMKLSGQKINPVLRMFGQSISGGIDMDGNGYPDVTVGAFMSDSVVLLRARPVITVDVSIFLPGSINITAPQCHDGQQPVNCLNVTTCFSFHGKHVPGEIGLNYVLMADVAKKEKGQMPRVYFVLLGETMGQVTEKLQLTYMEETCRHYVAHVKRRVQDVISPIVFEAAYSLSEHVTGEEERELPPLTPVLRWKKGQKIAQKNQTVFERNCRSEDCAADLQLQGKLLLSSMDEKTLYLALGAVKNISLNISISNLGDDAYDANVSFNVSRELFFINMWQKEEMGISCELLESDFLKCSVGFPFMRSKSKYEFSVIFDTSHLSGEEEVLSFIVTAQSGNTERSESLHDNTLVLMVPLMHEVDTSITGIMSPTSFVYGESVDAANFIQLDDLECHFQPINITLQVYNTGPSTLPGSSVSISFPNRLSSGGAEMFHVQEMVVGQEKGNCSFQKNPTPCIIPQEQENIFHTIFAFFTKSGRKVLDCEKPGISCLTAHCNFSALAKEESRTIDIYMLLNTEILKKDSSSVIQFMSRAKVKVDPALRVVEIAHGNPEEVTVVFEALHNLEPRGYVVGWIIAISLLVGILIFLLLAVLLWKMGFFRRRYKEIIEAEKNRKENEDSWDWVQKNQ
Sequence of UniProt Q13797 (P05556 21-798, chain 2 of 2, further chain): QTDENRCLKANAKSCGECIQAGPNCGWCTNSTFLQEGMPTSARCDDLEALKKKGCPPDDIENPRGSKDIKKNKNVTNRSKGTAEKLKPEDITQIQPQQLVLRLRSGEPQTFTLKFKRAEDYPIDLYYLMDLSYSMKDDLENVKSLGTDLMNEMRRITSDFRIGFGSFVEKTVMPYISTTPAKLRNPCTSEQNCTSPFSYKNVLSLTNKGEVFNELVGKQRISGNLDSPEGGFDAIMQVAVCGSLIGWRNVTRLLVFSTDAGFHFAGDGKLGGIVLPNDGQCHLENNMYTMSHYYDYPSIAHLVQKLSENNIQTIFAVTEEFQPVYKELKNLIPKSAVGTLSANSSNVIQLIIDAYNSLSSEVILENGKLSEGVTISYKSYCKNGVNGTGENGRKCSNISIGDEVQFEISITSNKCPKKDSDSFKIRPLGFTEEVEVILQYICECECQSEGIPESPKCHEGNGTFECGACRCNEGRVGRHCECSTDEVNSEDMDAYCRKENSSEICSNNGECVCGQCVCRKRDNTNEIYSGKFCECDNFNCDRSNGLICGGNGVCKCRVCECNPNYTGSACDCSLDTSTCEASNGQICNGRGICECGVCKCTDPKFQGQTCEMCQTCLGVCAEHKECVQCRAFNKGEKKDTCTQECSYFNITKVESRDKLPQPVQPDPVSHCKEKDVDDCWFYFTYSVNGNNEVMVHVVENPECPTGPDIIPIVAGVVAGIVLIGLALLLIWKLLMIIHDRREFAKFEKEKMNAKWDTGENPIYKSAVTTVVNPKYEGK
Sequence of VLO5, snake venom MLD-disintegrin (P0C6A9 whole entry): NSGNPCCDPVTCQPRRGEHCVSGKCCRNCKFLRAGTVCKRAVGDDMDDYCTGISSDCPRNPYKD
Sequence of VLO5, snake venom MLD-disintegrin (P0C6B0 whole entry, further chain): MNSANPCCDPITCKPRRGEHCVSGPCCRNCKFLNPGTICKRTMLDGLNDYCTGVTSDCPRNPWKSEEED

With CS-1 peptide EILDVPST, the concentration giving complete inhibition of cell adhesion in assay [1] and in assay [2] was 500 µM in each case.
Usually IC50 stands for the concentration that inhibits the measured activity by half. With VLO5, snake venom MLD-disintegrin, the IC50 in assay [3] stood at 3.2 nM; in assay [4], 5.6 nM.
